Experimental data taken from the supplement of paper PMC7125110.
± gives the standard error. For some assays here: This sample holds only a part of the variants without activity.

B1: glmS ribozyme (parent)
chain: AUAAAAGCGCCAGAACUACAGAAAUGUAGUUGACGAGGAGGAGGUUUAUCGAAUUUUCGGCGGAUGCCUCCAAA

What was measured:
Conditions in all cases: with glucosamine-6-phosphate
[1] = variants of: B1; experiment: kcat; higher = faster cleavage; RNA array
In short: (§1)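 In situ transcription by E. coli RNA polymerase produced barcoded ribozyme variants on sequenced MiSeq chips, and a hybridised Cy3 probe tracked them at 37 °C. Glucosamine-6-phosphate was flowed in at 40 μM to 10 mM in HEPES/KCl/Mg(OAc)2 buffer. kcat and KM were taken from weighted Michaelis–Menten fits of kobs values from exponential decay fits.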

[2] = variants of: B1; experiment: KM; higher = weaker cofactor use; RNA array
In short: as §1

[3] = variants of: B1; experiment: self-cleavage kobs at 40 uM GlcN6P; higher = faster cleavage; RNA array
In short: as §1

[4] = variants of: B1; experiment: self-cleavage kobs at 160 uM GlcN6P; higher = faster cleavage; RNA array
In short: as §1

[5] = variants of: B1; experiment: self-cleavage kobs at 640 uM GlcN6P; higher = faster cleavage; RNA array
In short: as §1

[6] = variants of: B1; experiment: self-cleavage kobs at 2500 uM GlcN6P; higher = faster cleavage; RNA array
In short: as §1

[7] = variants of: B1; experiment: self-cleavage kobs at 10000 uM GlcN6P; higher = faster cleavage; RNA array
In short: as §1

| Variant | kcat [1] [s⁻¹] | KM [2] [mM] | self-cleavage kobs at 40 uM GlcN6P [3] [s⁻¹] | self-cleavage kobs at 160 uM GlcN6P [4] [s⁻¹] | self-cleavage kobs at 640 uM GlcN6P [5] [s⁻¹] | self-cleavage kobs at 2500 uM GlcN6P [6] [s⁻¹] | self-cleavage kobs at 10000 uM GlcN6P [7] [s⁻¹] |
| --- | --- | --- | --- | --- | --- | --- | --- |
| A12C U30C | 0.00413 ± 0.0012 | 3.85 ± 1.5 | 6.11e-05 ± 7.7e-06 | 0.000121 ± 2e-05 | 0.000707 ± 9.2e-05 | 0.00145 ± 0.0002 | 0.00306 ± 0.00028 |
| G44C G66U | < 1e-05 |  | < 1e-05 | < 1e-05 | < 1e-05 |  | < 1e-05 |
| C67A U69C | 0.00359 ± 0.0017 |  | 0.000527 ± 0.00011 |  | 0.0019 ± 0.00079 |  | 0.00665 ± 0.0025 |
| G38U A53C C70U | < 1e-05 |  |  |  |  | < 1e-05 |  |
| A6C C16G U31C C34G C68A | 1.74e-05 ± 6.6e-06 |  |  |  |  |  |  |
| U47A | 0.0447 ± 0.0064 | 2.15 ± 0.36 | 0.00084 ± 1.5e-05 | 0.00266 ± 0.00018 | 0.00994 ± 0.00044 | 0.0201 ± 0.0011 | 0.0412 ± 0.0016 |
| C11A C71A | 6.72e-05 ± 2.1e-05 |  |  |  |  | 2.11e-05 ± 9e-06 | 4.87e-05 ± 6.4e-06 |
| A52C G66C | 1.28e-05 ± 2.9e-06 |  | < 1e-05 |  | < 1e-05 |  |  |
| U54G C58U C67U | 4.43e-05 ± 9.6e-06 |  |  |  |  | 5.48e-05 ± 1.7e-05 | 3.78e-05 ± 1.2e-05 |
| G13U U55C | 0.000878 ± 0.00013 | 3.97 ± 1.2 |  | 2.79e-05 ± 1.3e-05 | 0.000149 ± 3.4e-05 | 0.000304 ± 5.4e-05 | 0.000642 ± 7e-05 |
| U46G U55G | 0.00623 ± 0.0016 | 2.04 ± 0.69 | 0.000153 ± 2.1e-05 | 0.000395 ± 8.6e-05 | 0.00125 ± 0.00021 | 0.00414 ± 0.001 | 0.00533 ± 0.00091 |
| A14G C71U | 0.133 ± 0.062 |  | 0.0019 ± 0.00017 | 0.00542 ± 0.00067 | 0.0171 ± 0.0027 | 0.0711 ± 0.027 | 0.112 ± 0.022 |
| A12C G32A | 0.00031 ± 2.5e-05 | 3.11 ± 0.47 |  |  | 5.72e-05 ± 1e-05 | 0.000129 ± 1.8e-05 | 0.000244 ± 3.1e-05 |
| G44C U47G G66U C67G | 0.000596 ± 0.00019 |  |  |  | 0.000152 ± 5e-05 | 0.000668 ± 0.00032 | 0.000455 ± 0.00013 |
| C50G C61A | 0.000122 ± 1.7e-05 |  | 9.57e-05 ± 9.4e-06 | 0.00018 ± 2.4e-05 | 0.000166 ± 1.7e-05 | 9.96e-05 ± 1.4e-05 | 0.000113 ± 9e-06 |
| G13A G60U | < 1e-05 |  |  |  |  |  | < 1e-05 |
